Test results as given in PMC2857867 (The FASEB Journal, 2010).

B1: mIL-10 (ligand)
chain: SRGQYSREDNNCTHFPVGQSHMLLELRTAFSQVKTFFQTKDQLDNILLTDSLMQDFKGYLGCQALSEMIQFYLVEVMPQAEKHGPEIKEHLNSLGEKLKTLRMRLRRCHRFLPCENKSKAVEQVKSDFNKLQDQGVYKAMNEFDIFINCIEAYMMIKMKS
B2: mIL-28A (ligand)
chain: DPVPRATRLPVEAKDCHIAQFKSLSPKELQAFKKAKDAIEKRLLEKDLRCSSHLFPRAWDLKQLQVQERPKALQAEVALTLKVWENMTDSALATILGQPLHTLSHIHSQLQTCTQLQATAEPRSPSRRLSRWLHRLQEAQSKETPGCLEASVTSNLFRLLTRDLKCVANGDQCV
B3: mIFNβ (ligand)
chain: INYKQLQLQERTNIRKCQELLEQLNGKINLTYRADFKIPMEMTEKMQKSYTAFAIQEMLQNVFLVFRNNFSSTGWNETIVVRLLDELHQQTVFLKTVLEEKQEERLTWEMSSTALHLKSYYWRVQRYLKLMKYNSYAWMVVRAEIFRNFLIIRRLTRNFQN
B4: mIFNα-A (ligand)
chain: CDLPHTYNLRNKRALKVLAQMRRLPFLSCLKDRQDFGFPLEKVDNQQIQKAQAIPVLRDLTQQTLNLFTSKASSAAWNATLLDSFCNDLHQQLNDLQTCLMQQVGVQEPPLTQEDALLAVRKYFHRITVYLREKKHSPCAWEVVRAEVWRALSSSVNLLPRLSEEKE
B5: hIL-28A (ligand)
chain: VPVARLHGALPDARGCHIAQFKSLSPQELQAFKRAKDALEESLLLKDCRCHSRLFPRTWDLRQLQVRERPMALEAELALTLKVLEATADTDPALVDVLDQPLHTLHHILSQFRACIQPQPTAGPRTRGRLHHWLYRLQEAPKKESPGCLEASVTFNLFRLLTRDLNCVASGDLCV

Target: T1, VACV strain WR IFNα/βBP B18 (vaccinia virus strain Western Reserve, UniProt P25213 20-351)
Assay: SPR

Row | Binder | binding result
1 | B1 | binds

Target: T1, VACV strain WR IFNα/βBP B18
Assay: SPR
Remark: another data set of the same source

Row | Binder | Kd | koff | kon
2 | B2 | 13.4 nM | 0.0112 s⁻¹ | 832000 M⁻¹ s⁻¹
3 | B3 | 3.2 nM | 0.000333 s⁻¹ | 104000 M⁻¹ s⁻¹
4 | B4 | 0.455 nM | 0.000784 s⁻¹ | 1.72e+06 M⁻¹ s⁻¹
5 | B5 | 14.9 nM | 0.00364 s⁻¹ | 245000 M⁻¹ s⁻¹
